Numbering of substitutions follows the chain as printed.
How the values were obtained:
[1] = tested on: HBEGF gene; assay type: cell-based, human; conditions: HEK293T; HBEGF-targeting spacer; toxin 0-2000 ng/mL
[2] = tested on: B2M locus; experiment: B2M repression (HLA-negative cells by flow cytometry) in HEK293T cells transfected with LTRP plasmids; assay type: cell-based, human; conditions: for Mean % HLA-negative cells: HEK293T cells, B2M-targeting spacer 7.37; for B2M repression by LTRP5 constructs with enhanced repressor domains: LTRP5 without ADD, scaffold 316 spacer 7.165, days 6/7 to 26/27, vs LTRP5-ZIM3
Procedure: Each construct was tested in triplicate.
Each construct was tested in triplicate. […] Cells were harvested for repression analysis at day 5, day 12, day 21, and day 51 post-transfection.
Each construct was tested in triplicate. […] Cells were harvested for repression analysis at day 8, day 13, day 20, and day 27 post-transfection. […] In addition, cells were also harvested on day 5 post-transfection for gDNA extraction for bisulfite sequencing to assess off-target methylation at the non-targeted VEGFA locus, which was performed using similar methods as described in Example 13.
HEK293T cells were transfected as described in Example 14, except that the cells were transfected with 50 ng each of a plasmid encoding the LTRP construct and a plasmid encoding the gRNA. […] 72 of the 95 top repressor domains were assessed together in one experiment where B2M expression was measured at 7, 14, 19, and 26 days after transfection, and the data shown in Tables 57-60.

[3] = tested on: B2M locus; experiment: B2M reactivation by 5-azadC (DNMT1 inhibitor) in transfected HEK293T cells; conditions: B2M-targeting gRNA, 5-azadC 0-20 uM
Procedure: These transfected HEK293T cells were subsequently re-seeded at ˜30,000 cells well of a 96-well plate and were treated with 5-aza-2′-deoxycytidine (5-azadC), a DNMT1 inhibitor, at concentrations ranging from 0 μM to 20 μM. […] Treatments for each dose of 5-azadC for each experimental condition were performed in triplicates.

[4] = tested on: HBEGF locus; assay type: cell-based, human; conditions: for Log2 (fold change): high-throughput screen of dXR repression of the HBEGF gene, change in abundance of each domain in the library before and after diphtheria toxin selection
[5] = HEK293T, 50 days post-transfection, spacer 7.37 (B2M)
[6] = HEK293T, 73 days post-transfection, spacer 7.37 (B2M)

B1: CasX 491: catalytically-active CasX variant 491 (protein)
chain: QEIKRINKIRRRLVKDSNTKKAGKTGPMKTLLVRVMTPDLRERLENLRKKPENIPQPISNTSRANLNKLLTDYTEMKKAILHVYWEEFQKDPVGLMSRVAQPASKKIDQNKLKPEMDEKGNLTTAGFACSQCGQPLFVYKLEQVSEKGKAYTNYFGRCNVAEHEKLILLAQLKPEKDSDEAVTYSLGKFGQRALDFYSIHVTKESTHPVKPLAQIAGNRYASGPVGKALSDACMGTIASFLSKYQDIIIEHQKVVKGNQKRLESLRELAGKENLEYPSVTLPPQPHTKEGVDAYNEVIARVRMWVNLNLWQKLKLSRDDAKPLLRLKGFPSFPLVERQANEVDWWDMVCNVKKLINEKKEDGKVFWQNLAGYKRQEALRPYLSSEEDRKKGKKFARYQLGDLLLHLEKKHGEDWGKVYDEAWERIDKKVEGLSKHIKLEEERRSEDAQSKAALTDWLRAKASFVIEGLKEADKDEFCRCELKLQKWYGDLRGKPFAIEAENSILDISGFSKQYNCAFIWQKDGVKKLNLYLIINYFKGGKLRFKKIKPEAFEANRFYTVINKKSGEIVPMEVNFNFDDPNLIILPLAFGKRQGREFIWNDLLSLETGSLKLANGRVIEKTLYNRRTRQDEPALFVALTFERREVLDSSNIKPMNLIGVDRGENIPAVIALTDPEGCPLSRFKDSLGNPTHILRIGESYKEKQRTIQAKKEVEQRRAGGYSRKYASKAKNLADDMVRNTARDLLYYAVTQDAMLIFENLSRGFGRQGKRTFMAERQYTRMEDWLTAKLAYEGLSKTYLSKTLAQYTSKTCSNCGFTITSADYDRVLEKLKKTATGWMTTINGKELKVEGQITYYNRYKRQNVVKDLSVELDRLSEESVNNDISSWTKGRSGEALSLLKKRFSHRPVQEKFVCLNCGFETHADEQAALNIARSWLFLRSQEYKKYQTNKTTGNTDKRAFVETWQSFYRKKLKEVWKPAV
modifications: listed as DNA
For B1, the “protection from diphtheria toxin” value [1] was “protects at all doses”, the “Mean % HLA-negative cells” value ([2]; 6 days post-transfection) was 76.167% and the “Mean % HLA-negative cells” value ([2]; 13 days post-transfection) was 81.167%. For the same molecule, the “Mean % HLA-negative cells” value ([2]; 20 days post-transfection) was 83.633%, the “Mean % HLA-negative cells” value ([2]; 27 days post-transfection) was 80.933% and the “% HLA-negative cells (mean)” value ([2]; HEK293T, 50 days post-transfection, spacer 0.0 (non-targeting)) was 0.29%. For the same molecule, the “% HLA-negative cells (mean)” value [2, 5] was 76.57%, the “% HLA-negative cells (mean)” value ([2]; HEK293T, 73 days post-transfection, spacer 0.0 (non-targeting)) was 0.71% and the “% HLA-negative cells (mean)” value [2, 6] was 73.30%. The “B2M repression (HLA-negative cells)” value ([2]; HEK293T, LTRP #1, #4, #5 plasmids and controls, scaffold 174 spacer 7.37, time course to 73 days) was “durable silencing of the B2M expression”, the “repression of B2M expression by day 58” value ([2]; HEK293T, plasmid with B2M-targeting gRNA scaffold 174 spacer 7.37) was ~75% and the “reactivation of the B2M gene upon 5-azadC treatment” value [3] was “did not exhibit reactivation of the B2M gene”.

B2: DOMAIN_26749: repressor domain derived from the king cobra, Ophiophagus hannah; SEQ ID NO: 135 (protein)
chain: STPVTFEDVVVYFTAAEWVHLTNWQRDFYQAVMMETYELVASVAGDGVPMAEDEEGGVERPVWQYIPRGKRRRKTPQPRAD
modifications: Ophiophagus hannah
For B2, the “B2M repression by LTRP5 constructs with enhanced repressor domains” value ([2]; HEK293T) was “most effective repressor domains”, the “log 2 (fold change) of abundance before and after selection” value ([4]; HEK293T, dCasX491 fusion, scaffold 174 spacer 34.28, 2 ng/ml diphtheria toxin for 48 hours) was “highest log 2 (fold change)” and the “Log2 (fold change)” value [4] was 5.4323.

B3: DOMAIN_29304: one of the nine most effective repressor domains (protein, listed as Peromyscus maniculatus)
chain: VTYNDVHVDITQEEWALMDPSQRNLYKDVMVETYMNLTAIGYNWENLEVEEPCQNPLKHGRHERPHTGEKPYEYNQCGKAFAQP
B3 was tested, and the “B2M repression by LTRP5 constructs with enhanced repressor domains” value ([2]; HEK293T) was “most effective repressor domains” and the “Log2 (fold change)” value [4] was 4.0496.

B4: dCasX491: catalytically-dead CasX variant, SEQ ID NO: 4 (protein)
chain: B1 chain with D659A, E756A, D921A
For B4, the “% HLA-negative cells (mean)” value [2, 5] was 0.49% and the “% HLA-negative cells (mean)” value [2, 6] was 0.83%.

Reference: patent US12551573B2, “Compositions and methods for the targeting of PCSK9” (Scribe Therapeutics Inc., priority 2022, dated 2026)
